Data taken from patent US20080050370A1 (Biogen, published 2008).
Changes are numbered by the printed parent chain. Names may count otherwise.

B1: BHA10 (Gly4Ser)4 scFv (scFv)
scFv: QVQLVQSGAEVKKPGSSVKVSCKASGYTFTTYYLHWVRQAPGQGLEWMGWIYPGNVHAQYNEKFKGRVTITADKSTSTAYMELSSLRSEDTAVYYCARSWEGFPYWGQGTTVTVSSGGGGSGGGGSGGGGSGGGGSDIQMTQSPSSLSASVGDRVTITCKASQNVGINVAWYQQKPGKAPKSLISSASYRYSGVPSRFSGSGSGTDFTLTISSLQPEDFATYFCQQYDTYPFTFGQGTKVEIK
notes: His-tagged (captured through anti-PENTA-His); also called Wild-type, (G4S)*4 linker; GS4
B2: BHA10 scFv VH-P101D, (G4S)4 linker (scFv, name in Kabat numbering)
scFv: B1 scFv with P104D
notes: Built on the (G4S)4 scFv; The position is a Kabat number of VH; also called 077 VH-P101D; pIEH058
B3: BHA10 scFv VH-S16E, (G4S)4 linker (scFv, name in Kabat numbering)
scFv: B1 scFv with S16E
notes: Positions are Kabat numbers of the VH domain; also called 074 VH-S16E; pIEH032
B4: BHA10 scFv VH-S16Q, VL-S46L, (G4S)4 linker, no disulfide (scFv, name in Kabat numbering)
scFv: B1 scFv with S16Q, S182L
notes: Positions are Kabat numbers of the VH and VL domains; also called 078 VL-S46L + VH-S16Q; pIEH078
B5: BHA10 scFv VH-S16E, VH-V55G, VL-S46L, (G4S)4 linker (scFv, name in Kabat numbering)
scFv: B1 scFv with S16E, V56G, S182L
notes: Positions are Kabat numbers of the VH and VL domains; also called 087 VL-S46L + VH-S16E, V55G; pIEH087
B6: BHA10 VH44:VL100/(Gly4Ser)4 scFv (scFv)
scFv: B1 scFv with G44C, Q236C
notes: Cys at Kabat VH44 and VL100 form a disulfide; also called Wild-type, (G4S)*4 linker w/ VH44/VL100 disulfide; 009 (ss)
B7: BHA10 scFv VH-S16E, VL-S46L, (G4S)4 linker, no disulfide (scFv, name in Kabat numbering)
scFv: B1 scFv with S16E, S182L
notes: Positions are Kabat numbers of the VH and VL domains, not of the scFv entry; also called 076 VL-S46L + VH-S16E; pIEH076
B8: BHA10 scFv VL-S46L, (G4S)4 linker (scFv)
scFv: QVQLVQSGAEVKKPGSSVKVSCKASGYTFTTYYLHWVRQAPGQGLEWMGWIYPGNVHAQYNEKFKGRVTITADKSTSTAYMELSSLRSEDTAVYYCARSWEGFPYWGQGTTVTVSSGGGGSGGGGSGGGGSGGGGSDIQMTQSPSSLSASVGDRVTITCKASQNVGINVAWYQQKPGKAPKLLISSASYRYSGVPSRFSGSGSGTDFTLTISSLQPEDFATYFCQQYDTYPFTFGQGTKVEIKDDDDKSFLEQKLISEEDLNSAVDHHHHHH
notes: also called 072 VL-S46L; pIEH029
B9: BHA10 scFv VH-V55G, (G4S)4 linker (scFv)
scFv: B8 scFv with V56G, L182S
notes: also called 079 VH-V55G; pIEH070
B10: conventional BHA10 scFv, VH-(Gly4Ser)3-VL (scFv)
scFv: QVQLVQSGAEVKKPGSSVKVSCKASGYTFTTYYLHWVRQAPGQGLEWMGWIYPGNVHAQYNEKFKGRVTITADKSTSTAYMELSSLRSEDTAVYYCARSWEGFPYWGQGTTVTVSSGGGGSGGGGSGGGGSDIQMTQSPSSLSASVGDRVTITCKASQNVGINVAWYQQKPGKAPKSLISSASYRYSGVPSRFSGSGSGTDFTLTISSLQPEDFATYFCQQYDTYPFTFGQGTKVEIK
notes: also called Wild-type, (G4S)*3 linker; WT
B11: BHA10 Fab (Fab, V domains shown)
VH: QVQLVQSGAEVKKPGSSVKVSCKASGYTFTTYYLHWVRQAPGQGLEWMGWIYPGNVHAQYNEKFKGRVTITADKSTSTAYMELSSLRSEDTAVYYCARSWEGFPYWGQGTTVTVSS
VL: DIQMTQSPSSLSASVGDRVTITCKASQNVGINVAWYQQKPGKAPKSLISSASYRYSGVPSRFSGSGSGTDFTLTISSLQPEDFATYFCQQYDTYPFTFGQGTKVEIK
notes: Made by enzymatic cleavage of BHA10 IgG1; also called BHA10 Fab (CHO)
B12: BHA10 scFv VH44/VL100 disulfide, VH-S16E, VL-S46L, (G4S)4 linker (scFv, name in Kabat numbering)
scFv: B1 scFv with S16E, G44C, S182L, Q236C
notes: It is read here as the disulfide version; also called 080 VL-S46L + VH-S16E + ss
B13: BHA10 scFv VH44/VL100 disulfide, VH-S16Q, VL-S46L, (G4S)4 linker (scFv, name in Kabat numbering)
scFv: B1 scFv with S16Q, G44C, S182L, Q236C
notes: It is read here as the disulfide version; also called pIEH081
B14: IEH031 (GS4 + SS + VL S46L) (scFv)
scFv: B8 scFv with G44C, Q236C
modifications: chain 1: engineered disulfide bond between Cys at pos 44 (VH Kabat 44) and Cys at pos 236 (VL Kabat 100)
notes: also called pIEH031; BHA10 scFv VH44-VL100 disulfide, (Gly4Ser)4 linker, VL S46L
B15: BHA10 VH44/VL100 scFv (scFv)
scFv, VH-(Gly4Ser)3-VL: B10 scFv with G44C, Q231C
modifications: disulfide bond between VH44 Cys and VL100 Cys (Kabat)
notes: Expressed in E. coli; also called IEH006 (GS3 + SS); pIEH006
B16: BHA10 scFv VH44:VL100 NH-Hercules bispecific antibody (bispecific antibody)
heavy: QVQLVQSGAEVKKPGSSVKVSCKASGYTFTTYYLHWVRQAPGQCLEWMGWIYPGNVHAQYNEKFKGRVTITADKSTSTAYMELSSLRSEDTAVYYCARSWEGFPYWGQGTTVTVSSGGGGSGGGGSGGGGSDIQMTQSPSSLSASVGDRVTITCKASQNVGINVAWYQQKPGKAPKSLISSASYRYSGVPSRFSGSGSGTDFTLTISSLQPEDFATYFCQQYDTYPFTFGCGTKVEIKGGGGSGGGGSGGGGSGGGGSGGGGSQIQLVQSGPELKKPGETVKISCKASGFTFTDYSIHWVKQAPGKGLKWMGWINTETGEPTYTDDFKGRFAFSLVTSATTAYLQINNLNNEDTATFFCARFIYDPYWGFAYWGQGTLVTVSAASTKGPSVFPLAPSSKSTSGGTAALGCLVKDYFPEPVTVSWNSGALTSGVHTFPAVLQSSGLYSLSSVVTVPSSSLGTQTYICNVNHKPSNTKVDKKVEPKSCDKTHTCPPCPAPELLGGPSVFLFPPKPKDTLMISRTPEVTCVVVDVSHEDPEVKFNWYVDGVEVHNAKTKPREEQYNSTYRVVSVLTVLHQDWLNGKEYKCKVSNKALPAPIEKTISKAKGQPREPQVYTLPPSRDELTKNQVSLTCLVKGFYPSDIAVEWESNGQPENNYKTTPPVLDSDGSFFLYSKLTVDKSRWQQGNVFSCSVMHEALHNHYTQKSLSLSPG
light: QLVLTQSSSVSFSLGASAKLTCTLSSQHSTYTIEWYQQQPLKPPKYVMELKKDGSHSTGDGIPDRFSGSSSGADRYLSISNIQPEDEAIYICGVGDTIKEQFVYVFGGGTKVEIKRTVAAPSVFIFPPSDEQLKSGTASVVCLLNNFYPREAKVQWKVDNALQSGNSQESVTEQDSKDSTYSLSSTLTLSKADYEKHKVYACEVTHQGLSSPVTKSFNRGEC
notes: BHA10 scFv (anti-LTβR) joined by a (Gly4Ser)5 linker to the N-terminus of the chimeric 14A2 IgG1 (anti-TRAIL R2) heavy chain; also called N-Hercules with VH44:VL100 BHA10 scFv; N-"Hercules" Cys
B17: BHA10 scFv VH44:VL100/(Gly4Ser)4 C-Hercules bispecific antibody (bispecific antibody, human IgG1, kappa)
heavy: not shown
light: B16 light
notes: scFv at the C-terminus of the chimeric 14A2 IgG1 heavy chain; For signal peptides see m17; also called XWU036; pXWU036
B18: BHA10 scFv VH44:VL100/(Gly4Ser)4 NH-Hercules bispecific antibody (bispecific antibody, human IgG1, kappa)
heavy: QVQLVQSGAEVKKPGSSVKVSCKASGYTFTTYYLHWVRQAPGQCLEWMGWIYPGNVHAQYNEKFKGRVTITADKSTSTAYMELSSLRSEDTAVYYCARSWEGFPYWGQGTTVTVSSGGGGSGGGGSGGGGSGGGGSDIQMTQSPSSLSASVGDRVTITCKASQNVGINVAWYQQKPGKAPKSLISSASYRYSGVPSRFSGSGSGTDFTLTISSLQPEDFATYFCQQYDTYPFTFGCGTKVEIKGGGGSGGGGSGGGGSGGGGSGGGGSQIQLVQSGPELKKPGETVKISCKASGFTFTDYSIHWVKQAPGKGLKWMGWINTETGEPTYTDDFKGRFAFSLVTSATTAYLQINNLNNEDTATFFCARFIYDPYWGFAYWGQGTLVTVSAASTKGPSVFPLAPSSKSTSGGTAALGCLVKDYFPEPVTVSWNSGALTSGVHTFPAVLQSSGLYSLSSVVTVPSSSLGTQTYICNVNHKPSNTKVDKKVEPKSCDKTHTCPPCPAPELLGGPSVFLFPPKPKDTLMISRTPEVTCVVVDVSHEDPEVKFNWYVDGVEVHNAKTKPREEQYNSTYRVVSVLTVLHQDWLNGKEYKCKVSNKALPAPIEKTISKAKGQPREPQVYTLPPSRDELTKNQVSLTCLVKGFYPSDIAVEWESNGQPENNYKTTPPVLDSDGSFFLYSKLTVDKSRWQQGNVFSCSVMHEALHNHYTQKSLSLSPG
light: B16 light
notes: scFv at the N-terminus of the chimeric 14A2 IgG1 heavy chain; For signal peptides see m17; also called XWU028; pXWU028
B19: BHA10 scFv VH44:VL100 C-Hercules bispecific antibody (bispecific antibody, human IgG1, kappa)
heavy: not shown
light: B16 light
notes: BHA10 scFv joined by a Ser(Gly4Ser)3 linker to the C-terminus of the chimeric 14A2 IgG1 heavy chain; For signal peptides see m17; also called C-Hercules with VH44:VL100 BHA10 scFv; C-"Hercules" Cys

molecular target: T1, sLTβR (UniProt P36941 31-227, limits assumed); assay: SPR (Biacore 3000)
T1 construct: Used in solution in ITC and as the analyte in SPR; also called soluble lymphotoxin beta receptor; antigen
T1 sequence (P36941 31-227 limits assumed): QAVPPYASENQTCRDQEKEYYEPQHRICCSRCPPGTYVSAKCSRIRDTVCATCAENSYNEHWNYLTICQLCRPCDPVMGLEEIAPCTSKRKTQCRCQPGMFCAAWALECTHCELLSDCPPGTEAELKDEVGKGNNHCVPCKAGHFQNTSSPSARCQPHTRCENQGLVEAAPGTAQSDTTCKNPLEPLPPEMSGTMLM

Binder	Kd [nM]
B1	2.1
B2	5.2
B3	2
B4	4.2
B5	3.8
B6	3.3
B7	3.4
B8	4
B9	2.2
B10	2.7

molecular target: T1, sLTβR; assay: isothermal titration calorimetry at 30 °C, Fab titrated into sLTβR in PBS
Experimental: The Fab and sLTβR were concentrated to 6.0 and 2.0 mg/mL, respectively, using Amicon ultracentrifugal filter devices (MWCO 10,000). The concentrated stock solutions were simultaneously dialyzed against PBS prior to the ITC measurements. ITC was performed on a VP-ITC unit (MicroCal LLC, Northampton, Mass.) set to 30° C. Approximately 500 μL of a 7 μM sLTβR solution was placed into the sample cell and PBS dialysate was placed in the reference cell. […] ITC curves were analysed using the Origin Software supplied by the manufacturer.

Binder	Kd [nM]
B11	1.9

molecular target: T1, sLTβR; assay: SPR (Biacore 3000), scFv captured on anti-PENTA-His, sLTβR as analyte, 1:1 Langmuir fit
Experimental: (§1) All experiments were performed in HBS-EP buffer, pH 7.4. […] 0.1 μM solutions of test scFvs were injected over the chip at a flow rate of 5 μl/min for 10 minutes and captured onto the surface via the immobilized PENTA-His antibody. To investigate binding between sLTβR and captured scFv, a concentration series of sLTβR (1, 2, 5, 10, 25, 50, 100, and 200 nM) was double injected at a flow rate of 30 μl/min onto the scFv-coated surface. Background was subtracted from test sample sensorgrams using sensorgram data from a flow cell containing buffer only and sensorgram data from the PENTA-His surface where scFv was injected followed by an injection of buffer instead of sLTβR. The curves were analyzed using the BiaEval 3.0 manufacturer's software. KD values were calculated by fitting kinetic association and dissociation curves to a 1:1 Langmuir binding model. Chip surfaces were regenerated by two consecutive 10 μL injections of 0.1 M glycine, pH 3.0.

Binder	Kd [nM]
B1	2.5
B6	4.3

molecular target: T1, sLTβR; assay: SPR (Biacore 3000), scFv captured on anti-PENTA-His, sLTβR 1-200 nM as analyte, 1:1 Langmuir fit
Experimental: as §1

Binder	Kd [nM]
B10	3.7

molecular target: T1, sLTβR; assay: SPR (Biacore 3000); with VH44/VL100 disulfide (second 'VH-S16E, VL-S46L' row, below the disulfide wild-type)

Binder	Kd [nM]
B12	4

molecular target: T1, sLTβR; assay: SPR (Biacore 3000); with VH44/VL100 disulfide (second 'VH-S16Q, VL-S46L' row, below the disulfide wild-type)

Binder	Kd [nM]
B13	3.3

molecular target: T2, LTβR-Ig (UniProt P36941 31-227, limits assumed); assay: thermal challenge assay, remaining binding to plate-coated LTβR-Ig read by DELFIA; unit taken from the x axis
T2 construct: extracellular domain; also called LTβR Ig receptor; recombinantly produced LTβR receptor; not shown: human Fc region
T2 sequence (P36941 31-227 limits assumed): as above

Binder	midpoint temperature of the thermal challenge curve (T50) [°C]
B6	63.3
B8	60.3
B14	72.3
B15	61.5

molecular target: T2, LTβR-Ig; assay: thermal challenge assay; T50 = temperature at which 50% of the molecules keep binding to plate-coated LTβR-Ig (DELFIA); unit taken from the x axis
Experimental: An aliquot of the supernatant was reserved for the reference DELFIA. […] For screens requiring multiple challenge temperatures (or for temperatures greater than 75° C.) the supernatants were transferred to 96-well PCR plates (Applied Biosystems, Foster City, Calif., Cat. # N801-560) and incubated for 90 minutes at the desired temperature.
After thermal challenge, the samples were centrifuged at 2,000 RPM to remove aggregated material. Soluble BHA10 scFv samples remaining in the treated, cleared supernatant were assayed for binding to cognate LTβR Ig antigen by DELFIA assay. […] Plates were coated overnight at 4° C., and blocked with DELFIA assay buffer (DAB, 10 mM Tris HCl, 150 mM NaCl, 20 μM EDTA, 0.5% BSA, 0.02% Tween 20, 0.01% NaN₃, pH 7.4) for one hour with shaking at room temperature. Plates were washed 3 times with DAB without BSA (Wash buffer), and test samples diluted in DAB were added to the plates in a final volume of 100 μl. The plates were incubated for one hour with shaking at room temperature, and then washed 3 times with Wash buffer to remove unbound and functionally inactivated scFv molecules. Bound BHA10 scFv was detected by addition of 100 μl per well of DAB containing 40 ng/ml of Eu-labeled anti-His₆ antibody (Perkin Elmer, Boston, Mass., Cat. # AD0109) and incubated at room temperature with shaking for one hour.

Binder	T50 [°C]
B1	53
B6	62
B11	62
B10	49
B15	59

molecular target: T2, LTβR-Ig; assay: bispecific sandwich ELISA: LTβR-Ig coated on the plate, purified antibody titrated, then TRAIL-R2 Fc 6X-His, detection with anti-His HRP conjugate; signal needs binding to both receptors
Experimental: In the next step, 100 μl individual ‘Hercules’ supernatant or purified protein in dilution buffer was added to duplicate wells and incubated for 1 h at 37° C. After washing with tap water, 100 μl of 100 ng/ml TRAIL-R2 Fc 6X-His tagged fusion protein (R&D Systems, Minneapolis, Minn.) was added to the wells and incubated for 1 h at 37° C. […] After washing, 100 μl/well of a HRPO Substrate combined TMB Peroxidase Substrate/Peroxidase Solution B (Kirdgaard and Perry Labs, Cat. 50-76-00) was added. The reaction was stopped with 100 μl of 2M H₂SO₄ after 5 to 10 min. The OD was measured at 450 nm and 540 nm using a Molecular Devices plate reader and binding curves were generated.
Purified versions of the stabilized Hercules constructs were then tested for bispecific binding activity to recombinantly produced TRAIL-R2 and LTβR receptors in an ELISA assay. In this assay LTβR Ig receptor was immobilized onto plates and test samples were then incubated to permit binding to receptor. Unbound samples were removed by washing followed by a second incubation step with TRAIL R2-(His)₆. Following a wash step, doubly-bound complexes were detected with a labeled anti-(His)₆ antibody.

Binder	EC50 [mg/L]
B16	0.041
B17	0.086
B18	0.055
B19	0.087
